From publication PMC8126837 (Proceedings of the National Academy of Sciences of the …, 2021) come the findings set out here.

Sequences and labels used below:
B1: WNb 26 (VHH)
VHH: QVQLQESGGGLVQAGGSLRLSCVVSGRTFSPYAMGWFRQAPGKEREFVAGMSWSSGKYYADSVKGRFTISRDGAKNAVYLQMNSLKPEDTAVYYCGAGGEGYSRGRVNLQPDFWGQGTQVTVSS
B2: WNb 27 (VHH)
VHH: QVQLQESGGGLVEAGDSLRLSCAASGRTFSRYAMGWFRQAPGKEREFVAAVSWNGGNTYYADSVKGRFTISRDNAKNTLYLQMNSLKPEDTARYYCVADRGESYYYNRDSEYEWWGQGTQVTVSS
B3: WNb 25 (VHH)
VHH: QVQLQESGGGLVQAGGSLRLSCVTSGLTFSRAAMGWFRQAPEKEREFVASIHWRGLNIAYADSVKGRFTISRDDAKNTLYLQMNSLKTEDTAVYYCAAIPFYYFDHISPFSRAAAYWGQGTQVTVSS
B4: WNb 34 (VHH)
VHH: QVQLQESGGGLVEAGDSLRLSCAASGRTFSRYAMGWFRQAPGKEREFVAAVSWNGGNTYYADSVKGRFTISRDNAKNTLYLQMNSLKPEDTAVYYCAAGGEPVVVIKLRNANEYDFLGQGTQVTVSS
B5: WNb 24 (VHH)
VHH: QVQLQESGGGLVQAGESLRLSCAASGRTFSRYAMGWFRQAPGKEREFVAAVSWNGGNTYYADSVKGRFTISRDNAKNTLYLQMNSLKPEDTAVYYCAAGGEPVVVIKLRNADEYDFLGQGTQVTVSS
B6: WNb 17 (VHH)
VHH: QVQLQESGGGLVQPGGSLRLSCAASGSIFSINVMGWYRQAPGKQRELVAAITSVGSTNYADSVKGRFTISRDNAENTVYLQMNSLKPEDTAVYYCNAVSTFTQAMGGSPEHYWGQGTQVTVSS
B7: WNb 29 (VHH)
VHH: QVQLQESGGGLVQPGGSLRLSCAFSGRTFSMYAMGWFRQAPGKEREFVAVIDDGGGRTYYADSVKGRFTISRDNAKNTVYLQMNSLKTEDTAVYCCAADMGFGYTIWADSYDYWGQGTQVTVSS
B8: WNb 36 (VHH)
VHH: QVQLQESGGGLVQPGGSLRLSCAVSGFTLDYYAIGWFRQAPGKEREGVSCISNSGGNTKYADSVKGRFTTSVDNAQNTVYLLMNSLEPEDTAVYYCAAIAATYYSGTYYYQCPHYGMDYWGKGTQVTVSS
B9: WNb 2 (VHH)
VHH: QVQLQESGGGLVQPGGSLRLSCAVSGFTLDYYAIGWFRQAPGKEREGVSCISSSGGNTKYADSVKGRFTASRDNAKNTFYLQMNSLKPEDTAVYYCAAIAATYYSGSYYFQCPHDGMDYWGKGTQVTVSS
notes: source: expressed and purified
B10: WNb 7 (VHH)
VHH: QVQLQESGGGLVQPGGSLRLSCAAPGFTFSSYAMGWFRQVPGKGLEWVSGIYSDGSTYYADSVKGRFTISRDNAKNTVYLQMNSLKPEDTAVYYCAKDRLEGSSWPERDFGSWGQGTQVTVSS
B11: WNb 15 (VHH)
VHH: QVQLQESGGGLVQPGGSLRLSCAASGFTFSSYLMGWFRQVPGKGLEWVSGIYSDGGTYYADSVKGRFTISRDNAKNTVYLQMNSLKPEDTAVYYCATDRMEGSSWPERDFGSWGQGTQVTVSS
B12: WNb 23 (VHH)
VHH: QVQLQESGGGLVQPGGSLRLSCAASGFTFKDYAMAWARQVPGKGLEWVSGIYSDGNTYYADSVKGRFTISRDNAKNTVYLRMNSLKPEDTAVYYCATERHPQGAADFGSWGQGTQVTVSS
notes: as for B9
B13: WNb 21 (VHH)
VHH: QVQLQESGGGLVQAGGSLTLTCAASERTFGRYVLAWFRQAPGKERELVARISRSTGSTFHADFVLGRFTISRDNAKNTVYLTMNNLKPEDTAVYYCAADKDGGLEYDYWGQGTQVTVSS
notes: as for B9
B14: WNb 19 (VHH)
VHH: QVQLQESGGGLVQPGGSLRLSCAASGSMFSINVMGWYRQASGKQRELVAGITRDGATNYSDSVKGRFTISGDNAKNTVYLQMNSLKPEDTAVYYCNTNVDSVWGSRIDYFGQGTQVTVSS
B15: WNb 67 (VHH)
VHH: QVQLQESGGGLVQPGGSLRLSCAVSGFTLDYYAIGWFRQAPGKEREGVSCISSSGGSTNYADSVKGRFTISRDNATNTVYLQMNSLKPEDTAVYYCAAIAATYYGGSYYYQCPHYGMDYWGKGTQVTVSS
B16: WNb 41 (VHH)
VHH: QVQLQESGGGLVQPGGSLRLSCAVSGFTLDYYAIGWFRQAPGKEREGVSCISSSGGSTNYADSVKGRFTISRDNAKNTVYLQMNGLKPEDTAVYYCAAIAATYYSGSYYYQCPHDGMDYWGKGTQVTVSS
B17: WNb 53 (VHH)
VHH: QVQLQESGGGLVQPGGSLRLSCAASGFTFSSYLMGWARQVPGKGLEWVAGIYSDGSTYYADSVKGRFIISRDNAKNTVYLQMNSLKPEDTAVYYCAKDRMEDSTWPERDFGSWGQGTQVTVSS
B18: WNb 50 (VHH)
VHH: QVQLQESGGGLVQPGGSLRLSCAASGFTFSSYAMGWFRQVPGKGLEWVSGIYSDGSTYYADSVKGRFTISRDNAKNTVYLQMNSLKPEDTAVYYCAADRMAGSRWPERDFGSWGQGTQVTVSS

The target in the first test is T1, SARS-CoV-2 receptor-binding domain (RBD), wild type (SARS-CoV-2, UniProt P0DTC2, DyLight 488 (NHS ester, about 1.9 dye/protein) in the FRET assay only).
Assay: not given
Details: not given
With B1, the binding result is recorded as “binds”.

On to B2, for which the binding result is “binds”.

Consider B3, for which the binding result is given as “binds”. The same measure, in the same setting: the entry for B4 is “binds”.

B5: the binding result is “binds”.

For the molecule B6, the binding result is listed as “binds”. Still for that read-out and setting: the entry for B7 is “binds”.

The target in the next test is T1, SARS-CoV-2 receptor-binding domain …. The test can be described thus: BLI. To be noted: both partners purified.
What is called Kd is the free concentration of one partner at which half of the binding sites on the other are occupied at equilibrium, for simple one-to-one binding. Higher therefore signals a looser complex. B8 gave a dissociation constant Kd below 0.5 nM. The same measure, in the same setting: the figure for B9 is below 0.5 nM. Still for that read-out and setting: the same measure for B10: below 0.5 nM. In turn, B11 showed a Kd below 0.5 nM.

The next test addresses T2, SARS-CoV receptor-binding domain (RBD) (SARS-CoV, UniProt P59594).
T2 construct: source: recombinant, purified
The test can be described thus: ELISA. To be noted: both partners purified. For orientation: ELISA stands for enzyme-linked immunosorbent assay.
Consider B12, for which the binding result was “binds”. On the same count and under the same terms, the same measure for B13: “binds”.

A further test addresses T1, SARS-CoV-2 receptor-binding domain …. The test can be described thus: cell-based or functional assay.
Details: not given
The molecule B14 displayed an other of at most 80 nM.

Regarding B15, the other was at most 80 nM. Still for that read-out and setting: the figure for B16 is at most 80 nM; for B17 it is at most 80 nM; for B18 it is at most 80 nM.
